Experimental data: patent US20030134325A1

Columns and labels:
[1] = target: mouse immunoglobulin (MIgG); experiment: binding to BIOMAG-MIgG; fluorescence
[2] = target: phycobilisome-GAM conjugate (glutaraldehyde-stabilized P. cruentum phycobilisomes conjugated to affinity-purified, Fc-specific goat anti-mouse IgG); experiment: displacement of conjugate prebound to BIOMAG-RIgG (competitor RIgG); MIgG 1 ng/test
[3] = target: phycobilisome-GAM conjugate (glutaraldehyde-stabilized P. cruentum phycobilisomes conjugated to affinity-purified, Fc-specific goat anti-mouse IgG); experiment: displacement of conjugate prebound to BIOMAG-RIgG (competitor RIgG); MIgG 10 ng/test
[4] = target: phycobilisome-GAM conjugate (glutaraldehyde-stabilized P. cruentum phycobilisomes conjugated to affinity-purified, Fc-specific goat anti-mouse IgG); experiment: displacement of conjugate prebound to BIOMAG-RIgG (competitor RIgG); MIgG 100 ng/test
[5] = target: phycobilisome-GAM conjugate (glutaraldehyde-stabilized P. cruentum phycobilisomes conjugated to affinity-purified, Fc-specific goat anti-mouse IgG); experiment: displacement of conjugate prebound to BIOMAG-RIgG (competitor RIgG); MIgG 1,000 ng/test
[6] = target: phycobilisome-GAM conjugate (glutaraldehyde-stabilized P. cruentum phycobilisomes conjugated to affinity-purified, Fc-specific goat anti-mouse IgG); experiment: displacement of conjugate prebound to BIOMAG-RIgG (competitor RIgG); MIgG 10,000 ng/test
[7] = target: phycobilisome-GAM conjugate (glutaraldehyde-stabilized P. cruentum phycobilisomes conjugated to affinity-purified, Fc-specific goat anti-mouse IgG); experiment: microtiter displacement of conjugate prebound to RIgG-coated wells (competitor RIgG); MIgG 1 ng/test
[8] = target: phycobilisome-GAM conjugate (glutaraldehyde-stabilized P. cruentum phycobilisomes conjugated to affinity-purified, Fc-specific goat anti-mouse IgG); experiment: microtiter displacement of conjugate prebound to RIgG-coated wells (competitor RIgG); MIgG 10 ng/test
[9] = target: phycobilisome-GAM conjugate (glutaraldehyde-stabilized P. cruentum phycobilisomes conjugated to affinity-purified, Fc-specific goat anti-mouse IgG); experiment: microtiter displacement of conjugate prebound to RIgG-coated wells (competitor RIgG); MIgG 100 ng/test
[10] = target: phycobilisome-GAM conjugate (glutaraldehyde-stabilized P. cruentum phycobilisomes conjugated to affinity-purified, Fc-specific goat anti-mouse IgG); experiment: microtiter displacement of conjugate prebound to RIgG-coated wells (competitor RIgG); MIgG 1,000 ng/test
[11] = target: mouse immunoglobulin (MIgG); experiment: photometric; PB-GAM 3 ug/test, BIOMAG-MIgG 30 ug/test
[12] = target: mouse immunoglobulin (MIgG); experiment: photometric; PB-GAM 12 ug/test, BIOMAG-MIgG 30 ug/test
[13] = target: mouse immunoglobulin (MIgG); experiment: photometric; PB-GAM 3 ug/test, BIOMAG-MIgG 100 ug/test
[14] = target: mouse immunoglobulin (MIgG); experiment: photometric; PB-GAM 3 ug/test, BIOMAG-MIgG 300 ug/test
[15] = target: mouse immunoglobulin (MIgG); experiment: photometric; PB-GAM 40 ug/test, BIOMAG-MIgG 30 ug/test
[16] = target: mouse immunoglobulin (MIgG); experiment: photometric; PB-GAM 12 ug/test, BIOMAG-MIgG 100 ug/test
[17] = target: mouse immunoglobulin (MIgG); experiment: photometric; PB-GAM 12 ug/test, BIOMAG-MIgG 300 ug/test
[18] = target: mouse immunoglobulin (MIgG); experiment: photometric; PB-GAM 40 ug/test, BIOMAG-MIgG 100 ug/test
[19] = target: mouse immunoglobulin (MIgG); experiment: photometric; PB-GAM 40 ug/test, BIOMAG-MIgG 300 ug/test
[20] = target: mouse immunoglobulin (MIgG); experiment: 50 ul conjugate (80 ug/ml) + BIOMAG-MIgG 1 mg/test; soluble MIgG 0
[21] = target: mouse immunoglobulin (MIgG); experiment: binding to BIOMAG-MIgG, solid phase in pseudo-excess; fluorescence
[22] = target: mouse immunoglobulin (MIgG); experiment: photometric; PB-GAM 3 ug/test, soluble MIgG 0, BIOMAG-MIgG 30 ug/test
[23] = target: mouse immunoglobulin (MIgG); experiment: photometric; PB-GAM 12 ug/test, soluble MIgG 0, BIOMAG-MIgG 30 ug/test
[24] = target: mouse immunoglobulin (MIgG); experiment: photometric; PB-GAM 3 ug/test, soluble MIgG 0, BIOMAG-MIgG 100 ug/test
[25] = target: mouse immunoglobulin (MIgG); experiment: photometric; PB-GAM 3 ug/test, soluble MIgG 0, BIOMAG-MIgG 300 ug/test
[26] = target: mouse immunoglobulin (MIgG); experiment: photometric; PB-GAM 40 ug/test, soluble MIgG 0, BIOMAG-MIgG 30 ug/test
[27] = target: mouse immunoglobulin (MIgG); experiment: photometric; PB-GAM 12 ug/test, soluble MIgG 0, BIOMAG-MIgG 100 ug/test
[28] = target: mouse immunoglobulin (MIgG); experiment: photometric; PB-GAM 12 ug/test, soluble MIgG 0, BIOMAG-MIgG 300 ug/test
[29] = target: mouse immunoglobulin (MIgG); experiment: photometric; PB-GAM 40 ug/test, soluble MIgG 0, BIOMAG-MIgG 100 ug/test
[30] = target: mouse immunoglobulin (MIgG); experiment: photometric; PB-GAM 40 ug/test, soluble MIgG 0, BIOMAG-MIgG 300 ug/test
[31] = target: mouse immunoglobulin (MIgG); experiment: 50 ul conjugate (80 ug/ml) + BIOMAG-MIgG 1 mg/test; soluble MIgG 1 ng/test
[32] = target: mouse immunoglobulin (MIgG); experiment: 50 ul conjugate (80 ug/ml) + BIOMAG-MIgG 1 mg/test; soluble MIgG 10 ug/test
[33] = target: mouse immunoglobulin (MIgG); experiment: photometric; PB-GAM 3 ug/test, soluble MIgG 10 ug/test, BIOMAG-MIgG 30 ug/test
[34] = target: mouse immunoglobulin (MIgG); experiment: photometric; PB-GAM 12 ug/test, soluble MIgG 10 ug/test, BIOMAG-MIgG 30 ug/test
[35] = target: mouse immunoglobulin (MIgG); experiment: photometric; PB-GAM 3 ug/test, soluble MIgG 10 ug/test, BIOMAG-MIgG 100 ug/test
[36] = target: mouse immunoglobulin (MIgG); experiment: photometric; PB-GAM 3 ug/test, soluble MIgG 10 ug/test, BIOMAG-MIgG 300 ug/test
[37] = target: mouse immunoglobulin (MIgG); experiment: photometric; PB-GAM 40 ug/test, soluble MIgG 10 ug/test, BIOMAG-MIgG 30 ug/test
[38] = target: mouse immunoglobulin (MIgG); experiment: photometric; PB-GAM 12 ug/test, soluble MIgG 10 ug/test, BIOMAG-MIgG 100 ug/test
[39] = target: mouse immunoglobulin (MIgG); experiment: photometric; PB-GAM 12 ug/test, soluble MIgG 10 ug/test, BIOMAG-MIgG 300 ug/test
[40] = target: mouse immunoglobulin (MIgG); experiment: photometric; PB-GAM 40 ug/test, soluble MIgG 10 ug/test, BIOMAG-MIgG 100 ug/test
[41] = target: mouse immunoglobulin (MIgG); experiment: photometric; PB-GAM 40 ug/test, soluble MIgG 10 ug/test, BIOMAG-MIgG 300 ug/test
rabbit IgG (RIgG) [42] = experiment: displacement assay; conjugate prebound to BIOMAG-RIgG; MIgG 0 ng/test (baseline)
[43] = target: mouse immunoglobulin (MIgG); experiment: competitive fluoroimmunoassay; 250 ng conjugate, 250 ug BIOMAG-MIgG per test; soluble MIgG 0
rabbit IgG (RIgG) [44] = experiment: microtiter displacement assay; conjugate prebound to RIgG-coated wells; MIgG 0 ng/test (baseline)
[45] = target: mouse immunoglobulin (MIgG); experiment: competitive fluoroimmunoassay; 250 ng conjugate, 250 ug BIOMAG-MIgG per test; soluble MIgG 1 ng/test
[46] = target: mouse immunoglobulin (MIgG); experiment: competitive fluoroimmunoassay; 250 ng conjugate, 250 ug BIOMAG-MIgG per test; soluble MIgG 10 ng/test
[47] = target: mouse immunoglobulin (MIgG); experiment: competitive fluoroimmunoassay; 250 ng conjugate, 250 ug BIOMAG-MIgG per test; soluble MIgG 100 ng/test
[48] = target: mouse immunoglobulin (MIgG); experiment: competitive fluoroimmunoassay; 250 ng conjugate, 250 ug BIOMAG-MIgG per test; soluble MIgG 1,000 ng/test

Substance “GAM antibody conjugated by glutaraldehyde to formaldehyde-stabilized phycobilisomes” has a % specific binding [1] of 60%.

With mouse immunoglobulin (MIgG) (antibody) the % of maximal displacement [2] was 6.1%, the E666 (supernatant fluorescence) [2] was 1.07e+06 cps and the displacement [2] was 19000 cps. For the same substance, the % of maximal displacement [3] was 10.4%, the E666 (supernatant fluorescence) [3] was 1.08e+06 cps and the displacement [3] was 32000 cps. It also gave a % of maximal displacement [4] of 35.3%, an E666 (supernatant fluorescence) [4] of 1.16e+06 cps and a displacement [4] of 109000 cps. For the same substance, the % of maximal displacement [5] was 62.5%, the E666 (supernatant fluorescence) [5] was 1.25e+06 cps and the displacement [5] was 193000 cps. For the same substance, the % of maximal displacement [6] was 100%, the E666 (supernatant fluorescence) [6] was 1.36e+06 cps and the displacement [6] was 309000 cps. It also gave a % of maximal displacement [7] of 36.8%, an E666 (fluorescence) [7] of 411000 cps and a displacement [7] of 68000 cps. For the same substance, the % of maximal displacement [8] was 73%, the E666 (fluorescence) [8] was 478000 cps and the displacement [8] was 135000 cps. It also gave a % of maximal displacement [9] of 98.4%, an E666 (fluorescence) [9] of 525000 cps and a displacement [9] of 182000 cps. It also gave a % of maximal displacement [10] of 100%, an E666 (fluorescence) [10] of 528000 cps and a displacement [10] of 185000 cps.

“phycobilisome-GAM conjugate (glutaraldehyde-stabilized P. cruentum phycobilisomes conjugated to affinity-purified, Fc-specific goat anti-mouse IgG) (antibody)” showed a % binding [11] of 0%, a % binding [12] of 4.5% and a % binding [13] of 16.7%. It also gave a % binding [14] of 66.7%, a % binding [15] of 0% and a % binding [16] of 20.6%. For the same substance, the % binding [17] was 33.3%, the % binding [18] was 4.7% and the % binding [19] was 18.8%. It also gave a % bound [20] of 42.1%, a Supernatant E666 [20] of 2.24e+06 cps and a % specific binding [21] of less than 60%. The Supernatant Absorbance [22] was 12 mAU/ml, the Supernatant Absorbance [23] was 63 mAU/ml and the Supernatant Absorbance [24] was 10 mAU/ml. For the same substance, the Supernatant Absorbance [25] was 4 mAU/ml, the Supernatant Absorbance [26] was 210 mAU/ml and the Supernatant Absorbance [27] was 54 mAU/ml. The Supernatant Absorbance [28] was 44 mAU/ml, the Supernatant Absorbance [29] was 200 mAU/ml and the Supernatant Absorbance [30] was 173 mAU/ml. The % bound [31] was 28%, the MIgG inhibition [31] was 547000 cps and the Supernatant E666 [31] was 2.79e+06 cps. The % bound [32] was 0%, the MIgG inhibition [32] was 1.63e+06 cps and the Supernatant E666 [32] was 3.88e+06 cps. For the same substance, the Supernatant Absorbance [33] was 12 mAU/ml, the Supernatant Absorbance [34] was 66 mAU/ml and the Supernatant Absorbance [35] was 12 mAU/ml. For the same substance, the Supernatant Absorbance [36] was 12 mAU/ml, the Supernatant Absorbance [37] was 210 mAU/ml and the Supernatant Absorbance [38] was 68 mAU/ml. It also gave a Supernatant Absorbance [39] of 66 mAU/ml, a Supernatant Absorbance [40] of 212 mAU/ml and a Supernatant Absorbance [41] of 213 mAU/ml. It also gave an E666 (supernatant fluorescence) (rabbit IgG (RIgG) [42]) of 1.05e+06 cps, a % bound [43] of 24.3% and an E666 [43] of 374000 cps. The E666 (fluorescence) (rabbit IgG (RIgG) [44]) was 343000 cps, the % bound [45] was 19% and the E666 [45] was 400000 cps. For the same substance, the inhibition [45] was 26000 cps, the % bound [46] was 11.1% and the E666 [46] was 439000 cps. For the same substance, the inhibition [46] was 65000 cps, the % bound [47] was 0.8% and the E666 [47] was 490000 cps. The inhibition [47] was 116000 cps, the % bound [48] was 0% and the E666 [48] was 494000 cps. For the same substance, the inhibition [48] was 120000 cps.
